Consider one substance from PMC3806850.

The target in assay [1] is C215Fab-SEE (not stated | not stated (staphylococcal)) (UniProt P12993). Nature of the assay: SPR.
The target of assay [2] is 5T4Fab(V18)-SEA (not stated | not stated (staphylococcal)) (UniProt P0A0L2). Nature of the assay: SPR.
Chain of UniProt P0A0L2 (P0A0L2 whole entry, looked up): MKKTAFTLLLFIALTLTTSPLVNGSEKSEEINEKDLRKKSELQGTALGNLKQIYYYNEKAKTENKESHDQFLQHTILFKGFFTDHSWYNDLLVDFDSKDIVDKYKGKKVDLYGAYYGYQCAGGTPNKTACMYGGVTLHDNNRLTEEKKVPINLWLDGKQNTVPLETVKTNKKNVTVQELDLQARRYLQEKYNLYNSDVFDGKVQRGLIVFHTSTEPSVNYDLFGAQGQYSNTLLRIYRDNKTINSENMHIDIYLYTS

In assay [1], “Recombinant soluble human MHC class II (HLA-DR1) in complex with HA peptide (from UniProt P01903) (peptide-MHC)” showed a Kd of 1300 nM, an off-rate constant (koff) of 0.0029 s⁻¹ and an on-rate constant (kon) of 2300 M⁻¹ s⁻¹. In assay [2], the Kd is 400 nM, the koff worked out at 0.0011 s⁻¹ and the kon worked out at 2800 M⁻¹ s⁻¹.
